Results published in the supplement of paper PMC10126150.
± gives the standard deviation of the averaged measurements.

Test system: ATP
Assay: switch fluorescence ratio, 500 uM ATP over buffer (Cy3 cluster intensity, sum of 5 cycles each) (fold (ratio)); higher = stronger signal-on switching upon ATP binding; sequences stand for … in TCGTCGGCAGCGTCAGATGTGTATAAGAGACAGTTTTTTTTTTTTTTTTTTTTTTTTT…TC
Conditions: aptamer strand: ATP DNA aptamer (quencher-CACCTGGGGGAGTATTGCGGAGGAAGG + anchor), 100 nM annealed; ATP concentration: 500 uM
Summary of the method: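 Between each of five buffer/ATP cycles, the flow-cell was stripped with NaOH and re-annealed. Each cycle imaged Cy3-labelled switching-strand clusters, annealed to 100 nM quencher-labelled ATP aptamer on a modified Illumina MiSeq flow-cell, first in selection buffer and then after 15 min with 500 uM ATP at 22 °C. The fluorescence ratio is summed target-cycle over summed buffer-cycle Cy3 intensity per cluster, averaged per switch-domain sequence, with clusters outside 100-1000 RFU excluded.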
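Also: ATP exposure 15 min at 22 °C before imaging.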

Sequence | switch fluorescence ratio
TATGTTTT | 1.02 ± 0.016
GTATGGGTGT | 0.9711 ± 0.0078
GCGATTTGTG | 1.01 ± 0.037
TCGCGGCTAT | 1.56 ± 0.61
AAGGCTGGGG | 0.9781 ± 0.0058
GGGGTATTGT | 1.007 ± 0.0034
TTAAGGAGCG | 1.04 ± 0.016
AGAGGGGTAT | 1.04 ± 0.017
ATGATTTGAG | 0.9905 ± 0.0022
TACGTTTCC | 1.138 ± 0.0089
ACGGGGTCAG | 0.999 ± 0.026
CGTGTGTTGC | 1 ± 0.024
AGGGGAGAGG | 0.992 ± 0.01
GGGAAAGCAC | 1.12 ± 0.021
CCTTTTCGTG | 1.003 ± 0.0043
TAGGATTGGC | 1.04 ± 0.018
GGCAGAGATG | 1.02 ± 0.046
ATGTCCGGTT | 1 ± 0.019
AGGAGGACGG | 1.01 ± 0.042
CTGTCGGGCG | 1.02 ± 0.035
TGTTCAAAAC | 1 ± 0.086
GAGTTGGGAG | 1.01 ± 0.032
TGACGGGTTA | 1.02 ± 0.022
GTTATAACCG | 0.993 ± 0.024
GGGTGAAAAC | 1.03 ± 0.014

Sequence | switch fluorescence ratio
GTATGAGTAG | 0.992 ± 0.035
TGGTTGTTAT | 1.008 ± 0.0058
CGTAGTTTAT | 1.07 ± 0.022
TGGTGTTGTC | 1.03 ± 0.033
AGTTGTAGTT | 0.972 ± 0.041
GTCATAGATT | 0.989 ± 0.011
TTTAAGTGGT | 0.998 ± 0.018
GGGCATGCGT | 0.973 ± 0.042
ATTAATAGG | 0.997 ± 0.026
AGAGGCCGGG | 1 ± 0.032
ATTTCGATAT | 0.979 ± 0.038
AGGGGGAAGT | 0.99 ± 0.045
CAAGGATAGG | 0.9984 ± 0.0084
TTTGGGCTCC | 0.98 ± 0.018
GAACTGGTAG | 0.992 ± 0.035
TTCGTTTAGT | 1.039 ± 0.0026
GTTGCAGGGG | 1.08 ± 0.013
GTTTGGAGGA | 0.96 ± 0.024
GAGGTGGCAG | 1.0097 ± 0.00096
TTCTTTGGTT | 0.9889 ± 0.0055
AAGTTGTGTA | 0.993 ± 0.031
CATTTGTCCG | 1.01 ± 0.071
CCTTGTCGG | 1.07 ± 0.083
GCAGGTCTGT | 0.9688 ± 0.0037
CTATGAGTTT | 0.993 ± 0.013

Sequence | switch fluorescence ratio
TAAGGTGGGA | 0.996 ± 0.03
TTGGGGTT | 0.9662 ± 0.0019
AGGAACTTTT | 1.42 ± 0.56
GGGTGGTTAC | 0.99 ± 0.044
GGAGTAGCTA | 1.03 ± 0.04
AGGATTATTG | 0.991 ± 0.017
TGTATATTGG | 0.995 ± 0.015
AGTTCGGTGG | 0.962 ± 0.0022
TGGGAATGCC | 0.994 ± 0.025
GGGTAAGAGT | 1 ± 0.043
GCTCAATTGG | 1.018 ± 0.006
CCCGACTTTA | 1.04 ± 0.014
TCGGGCATAG | 1.06 ± 0.046
GGTCAGAAGG | 0.996 ± 0.026
GGCCGGTGAA | 0.9843 ± 0.0045
AATTGTTGCT | 0.99301 ± 0.00023
GCGAAATTAA | 0.997 ± 0.018
AGGGGTCTTA | 0.978 ± 0.02
CCAAAGGTTT | 1.13 ± 0.22
AGGTGACGAG | 1.02 ± 0.014
ATTTGCATGG | 1.09 ± 0.2
TTTCGACGTC | 0.997 ± 0.12
TAAGGAATCG | 1 ± 0.043
AGTCGATGTC | 0.9763 ± 0.0039
GGTTACCGGC | 0.977 ± 0.079

Sequence | switch fluorescence ratio
ATGTCGATGC | 1.01 ± 0.032
AATAGATTGC | 1.003 ± 0.0092
AGGGACGGGG | 0.991 ± 0.047
ACGGTGGGGG | 1.01 ± 0.025
GGGCAGGTTC | 1.08 ± 0.085
TGGGTATTGT | 1.02 ± 0.047
GAACGAAGTT | 1 ± 0.018
GAGAAATACG | 1.47 ± 0.08
TGTGTGTGTG | 0.974 ± 0.017
GAGGTGTGGG | 0.981 ± 0.016
AAGAGTTAGG | 0.966 ± 0.031
GGTGGGAAGG | 0.993 ± 0.02
TTTAGGACGC | 1.02 ± 0.022
TCCGAGAGAG | 1.25 ± 0.053
AGCCTCGGTT | 1.0014 ± 0.00098
TTTAGTCGGT | 0.9638 ± 0.0056
TCATGGTACG | 1.06 ± 0.022
GACGAAGGT | 1.01 ± 0.052
TCTAATTTCC | 1.05 ± 0.045
ATGGACGGGT | 0.996 ± 0.03
GATTTCGGCG | 0.97 ± 0.03
GATGGGCCGG | 1 ± 0.039
GGTGAAAACG | 0.9913 ± 0.0094
TCGGGGGAGG | 0.983 ± 0.022
GTTAAGGATT | 1.03 ± 0.085

Sequence | switch fluorescence ratio
GATAGGGGTT | 0.975 ± 0.022
AAAATATGG | 0.997 ± 0.031
TAAGTGGAAC | 1.002 ± 0.0063
CAGACTGGTT | 1.011 ± 0.0067
CCAGTCATTT | 1.03 ± 0.027
TTATTTCGTT | 0.989 ± 0.026
TGGATTGGGT | 1 ± 0.046
TTTATATTTG | 1 ± 0.027
AGTGCTTTTA | 0.9927 ± 0.0073
AAGGGCAGTA | 0.998 ± 0.01
TTTGGCTTAG | 0.991 ± 0.029
CGATCGAGGA | 0.991 ± 0.036
GCAAGACGTT | 1.51 ± 0.045
GTAATTTTGC | 0.989 ± 0.059
TCGACGGGTG | 1.02 ± 0.043
GGTAGCTAAG | 1 ± 0.034
TATCCCAGGC | 1.31 ± 0.032
CTGTATCAAG | 0.999 ± 0.013
TTTAAATTTA | 1.01 ± 0.028
CGGATCTGGT | 0.968 ± 0.024
TTTTGGGAT | 1.04 ± 0.15
CTGGGTAAGT | 1.017 ± 0.0074
GCGTCCAGTT | 1.09 ± 0.12
CCGCCATTGG | 1.62 ± 0.069
AGTCCCGTGC | 1.03 ± 0.052

Sequence | switch fluorescence ratio
CGCCAGAAGG | 0.9883 ± 0.0036
AGCATTGAGG | 0.984 ± 0.0067
TGAGGGGCTT | 1 ± 0.073
GATGGGTATA | 1.0016 ± 0.00067
GAACCGGATG | 0.9997 ± 0.0074
AATTAGGGGA | 1 ± 0.014
GCCAATGATC | 1.01 ± 0.073
CAGGAACCGA | 1.14 ± 0.017
TTTGAGATTG | 0.99556 ± 0.00097
TGATTAGGGC | 1.01 ± 0.017
GTTCGGTATG | 0.984 ± 0.033
AAGTTTTGGC | 1 ± 0.035
CTCTAGCTTT | 1.09 ± 0.075
ATGAGCGCAC | 1.06 ± 0.024
CGGGACTTGT | 0.952 ± 0.067
GACTGGGCAG | 1.01 ± 0.011
TTACTATGTA | 1.02 ± 0.019
TTAAGAGGTA | 1.002 ± 0.0039
AAGGTATTAA | 1 ± 0.036
CCGGGGAAGT | 0.978 ± 0.031
GGGGGGGCAG | 0.986 ± 0.017
TTGGTGATGA | 1.02 ± 0.023
AGCAATATGG | 2.49 ± 0.051
CGGGGCATAT | 1.13 ± 0.085
TGTTAGGTAA | 1.22 ± 0.32

Sequence | switch fluorescence ratio
TTATAATAG | 1.039 ± 0.0073
GCCGCCTGAT | 0.986 ± 0.021
ATGAAAGTCT | 0.976 ± 0.042
GGTAGCCTGC | 1.02 ± 0.023
CGCTCTTATT | 0.978 ± 0.016
AGTGTATTGA | 1 ± 0.036
TTCGATCCGT | 1.07 ± 0.029
CTAGTTGATG | 0.991 ± 0.022
TGTTTTCGGT | 0.9899 ± 0.0097
CCACCTTACG | 1.54 ± 0.077
CGTTATAAAG | 0.9811 ± 0.0012
ATACCCAAGC | 1.09 ± 0.011
GCTTCTGAGG | 1.07 ± 0.018
GACGTAACCT | 1.5 ± 0.032
GCCTGTTGCA | 0.9709 ± 0.0037
ACTGGGGGAG | 1.02 ± 0.015
GGTATTACGA | 0.989 ± 0.036
AGCGCCGCGT | 1.09 ± 0.13
TTATACGGAG | 1.01 ± 0.025
CCTGTAAAGA | 1.02 ± 0.019
TCCCAGCTGT | 1.12 ± 0.033
AGTTTGGTTC | 0.9876 ± 0.0078
TCACGGGGTT | 1.01 ± 0.039
GAGGGTGGGC | 1.03 ± 0.09
ACCTTCGTTG | 1.22 ± 0.003

Sequence | switch fluorescence ratio
GCGAGGGGTT | 0.969 ± 0.035
ACGTTATGTG | 1.0491 ± 0.00035
CAGGCGTGCA | 0.998 ± 0.018
TTGGGCTTTT | 0.996 ± 0.017
CGGACTAAGA | 1.04 ± 0.012
TGGATTATGT | 1.005 ± 0.0045
GTGGACTTGC | 0.973 ± 0.042
TAGCGTGTAG | 1.02 ± 0.022
GGTCGGGGGC | 1.02 ± 0.031
GCATGTTAGG | 1.01 ± 0.063
TAGTGAGGGA | 0.992 ± 0.013
TTGGACATGT | 0.989 ± 0.027
AAGTCACATC | 1.22 ± 0.19
GGGGTAAGAA | 0.981 ± 0.034
GGAACGGGTC | 1.02 ± 0.024
TTTGGTTTAT | 0.982 ± 0.04
AGGCTGGGGT | 1.02 ± 0.031
AGGGTAAACG | 0.986 ± 0.024
TTGAAGGCGT | 1 ± 0.026
GGGCGATGGG | 1.02 ± 0.084
ACATTCAGTA | 0.991 ± 0.014
GCAAAATAAA | 1.05 ± 0.12
GAGTCAGGTA | 1.01 ± 0.029
AGTGTCTCCT | 1.02 ± 0.058
CCAAAGGGGA | 1.15 ± 0.27
